Target: FCγ receptor II (CD32), endogenous on K562 and U937 cells (human (endogenous in K562 and U937)) (UniProt P12318)
Sequence of UniProt P12318 (P12318 34-317): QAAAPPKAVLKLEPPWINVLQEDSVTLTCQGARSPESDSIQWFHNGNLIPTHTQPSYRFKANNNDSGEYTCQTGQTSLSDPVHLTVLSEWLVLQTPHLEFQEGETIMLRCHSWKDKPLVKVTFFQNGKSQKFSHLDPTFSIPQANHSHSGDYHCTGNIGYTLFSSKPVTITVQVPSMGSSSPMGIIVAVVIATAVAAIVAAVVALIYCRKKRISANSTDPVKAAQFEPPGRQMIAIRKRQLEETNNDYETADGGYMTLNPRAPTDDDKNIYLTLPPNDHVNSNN

CD107a^+ iNKT cells (treated with 6B11 mAb 50 ng/mL overnight, washed) after coculture with K562 cells, E/T 2:1, in the presence of the blocking anti-CD32 mAb (10 µg/mL): 1.8%
CD107a^+ iNKT cells (treated with 6B11 mAb 50 ng/mL overnight, washed) after coculture with K562 cells, E/T 2:1, with isotype mIgG1 (10 µg/mL): 52.8%
CD107a^+ iNKT cells (treated with 6B11 mAb 50 ng/mL overnight, washed) after coculture with U937 cells, E/T 2:1, in the presence of the anti-CD32 mAb: 15.6%
CD107a^+ iNKT cells (treated with 6B11 mAb 50 ng/mL overnight, washed) after coculture with U937 cells, E/T 2:1, with mIgG1 as a control: 38.3%
Substance: anti-Vα24Jα18 TCR mAb (6B11 mAb) (antibody)
